Positions count from the first letter of the chain named. Numbers in names are those of the source.
B1: SlyB, native (endogenous) lipoprotein of E. coli (other)
chain: CVNNDTLSGDVYTASEAKQVQNVSYGTIVNVRPVQIQGGDDSNVIGAIGGAVLGGFLGNTVGGGTGRSLATAAGAVAGGVAGQGVQSAMNKTQGVELEIRKDDGNTIMVVQKQGNTRFSPGQRVVLASNGSQVTVSPR
modifications: N-terminal Cys18 carries the lipid anchor
B2: SlyB^PL, SlyB mutant I65A/V69A/F73A with disrupted outer leaflet phospholipid binding site (other)
chain: B1 chain with I48A, V52A, F56A
notes: whole, on cells; Tested in whole cell lysates and membrane fractions

How the values were obtained:
[1] = biological target: BamA, E. coli, untagged (endogenous, or co-expressed from pSlyB-BamA with its native signal peptide) (E. coli, UniProt P0A940 21-810); assay: cell-based or functional assay
[2] = biological target: the molecule itself; assay: α-SlyB Western of semi-native PAGE of whole cell lysate, with or without 1 mM EDTA

Row | Protein | cellular thermal shift assay (CETSA) on cells treated with EDTA: melting temperature of BamA in ΔslyB mutant versus WT cells [1] | binding result [2]
1 | B1 | ~4 °C | –
2 | B2 | – | no binding

— patent publication US20260115279A1 (VIB VZW, published 2026)
